Measurements from patent US20200165613, “VIRUS LIKE PARTICLE” (The University of Leeds, published 2020).
Positions count from the first letter of the chain named.

Tests used:
[1] = biological target: T1, STNV coat protein wild-type (Satellite tobacco necrosis virus 1) (UniProt P03606); settings: QELS after SEC; Rh 9.1 nm
T1 sequence: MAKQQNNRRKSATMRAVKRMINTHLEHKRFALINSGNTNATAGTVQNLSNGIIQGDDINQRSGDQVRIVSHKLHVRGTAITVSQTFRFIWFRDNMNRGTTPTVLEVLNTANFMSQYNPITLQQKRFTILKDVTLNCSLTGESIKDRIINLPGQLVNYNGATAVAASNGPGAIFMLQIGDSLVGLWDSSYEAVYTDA

[2] = biological target: T2, STNV coat protein wild-type (Satellite tobacco necrosis virus 1, UniProt P03606 P03606:1-196); assay: smFCS; Rh collapse 20-30% then cooperative T=1 assembly; settings: chain copies: trimeric capsomer / T=1 capsid; label: 5' Alexa Fluor 488; five stem-loops
T2 sequence: T1 sequence

[3] = biological target: T2, STNV coat protein wild-type; assay: svAUC; T=1 capsids with similar efficiency to PS3; 2 mM Ca2+; settings: chain copies: trimeric capsomer / T=1 capsid; stem-loop
[4] = biological target: T2, STNV coat protein wild-type; assay: smFCS; T=1 at lower CP than wild-type 127-mer; settings: chain copies: trimeric capsomer / T=1 capsid; label: 5' Alexa Fluor 488; five stem-loops
[5] = biological target: T2, STNV coat protein wild-type; assay: smFCS; T=1 but cooperativity lost; settings: chain copies: trimeric capsomer / T=1 capsid; label: 5' Alexa Fluor 488
[6] = biological target: T2, STNV coat protein wild-type; assay: competition; unlabelled B3 displaces AF488-B3 at 100-fold excess; settings: chain copies: trimeric capsomer / T=1 capsid; stem-loop
[7] = biological target: T2, STNV coat protein wild-type; assay: smFCS; best assembly substrate; settings: chain copies: trimeric capsomer / T=1 capsid; label: 5' Alexa Fluor 488; five stem-loops
[8] = biological target: T2, STNV coat protein wild-type; assay: competition; competes with B3; T=1 peak in svAUC; settings: chain copies: trimeric capsomer / T=1 capsid; stem-loop
[9] = biological target: T2, STNV coat protein wild-type; assay: smFCS; more efficient than wild-type 127-mer; settings: chain copies: trimeric capsomer / T=1 capsid; label: 5' Alexa Fluor 488; five stem-loops
[10] = biological target: T2, STNV coat protein wild-type; assay: competition; competes; forms T=1; text states low nanomolar affinity for AUUA; settings: chain copies: trimeric capsomer / T=1 capsid; stem-loop

Work on STNV-1 genome yielded an activity (% relative VLP yield) [1] of 80.

B1: STNV-1 PS1-5 127-mer (ssRNA)
RNA: GAGUAAAGACAGGAAACUUUACUGACUAACAUGGCAAAACAACAGAACAACAGGCGAAAAUCCGCAACAAUGCGUGCAGUGAAGCGCAUGAUAAAUACACACUUGGAGCAUAAAAGGUUUGCACUGA
B1: binds [2].

B2: B3 AGUA (ssRNA)
RNA: ACAUGCAAGUAUGCACAC
B2: binds [3].

B3: B3 AUGA (ssRNA)
RNA: ACAUGCAAUGAUGCACAC
B3: binds [3].

B4: B3 AAAA (ssRNA)
RNA: ACAUGCAAAAAUGCACAC
B4: binds [3].

B5: Stable PS1-5 (ssRNA)
RNA: GGGCUGCCCUCAAGGACCAGGGCAGAAAAGAGGAAAAGAAAAGUGACAGAACACUUAUAAGGAACCACACAAGUGGAAGGAAAAAAGGAAGCUGCAAUAGCGCAAGGAAUCCGAAAAUUCGGAAAGGAA
B5: binds [4].

B6: Unstable PS1-5 (ssRNA)
RNA: B5 RNA with G75A, G76U
B6: binds [5].

B7: B3 short / PS3 ACAA (ssRNA)
RNA: ACAUGCAACAAUGCACAC
B7: binds [6].

B8: Synthetic, stabilised PS1-5 (ssRNA)
RNA: GGGCUGCCCUCAAGGACCAGGGCAGAAAAGAGGAAAAGAAAAGUGACAGAACACUUAUAAGGAAAAAACGUACAAACGUUUUAAGGAAAAAAGGAAGCUGCAAUAGCGCAAGGAAUCCGAAAAUUCGGAAAGGAA
B8: binds [7].

B9: B3 UUUA (ssRNA)
RNA: ACAUGCAUUUAUGCACAC
B9: binds [8].

B10: All PS3 (ssRNA)
RNA: GGGCCCCGCAACAAUGCGGGGAAGGAAGGAAGGAAGAAAACGUACAAACGUUUUAAGGAACAACGCAACAAUGCGUUGAAGGAAGGAAGGAAGGGGCGUACAAACGCCCCAAGGAAUUUUGCAACAAUGCAAAAAAGGAA
B10: binds [9].

B11: B3 AGGA (ssRNA)
RNA: ACAUGCAAGGAUGCACAC
B11: binds [3].

B12: B3 AUUA (ssRNA)
RNA: ACAUGCAAUUAUGCACAC
B12: binds [10].
